According to patent US6335013B1, “Methods and materials relating to CD39-like polypeptides” (Hyseq, Inc., priority 1999, dated 2002):

Legend:
COS-7 cells [1] = test: Brefeldin A treatment of COS-7 cells transfected with CD39-L4-6His, secretion; format: cell-based; conditions: transfected COS-7 cells, 8 hours, increasing dosages
COS-7 cells [2] = test: Brefeldin A treatment of COS-7 cells transfected with CD39-L2, secretion; format: cell-based; conditions: transfected COS-7 cells, 8 hours, varying dosages
[3] = ADPase activity of CD39-L4 forms (insect-expressed, dimer, deglycosylated); format: biochemical
[4] = membrane bound or engineered soluble form; cited from earlier work
[5] = Kinetic characteristics of CD39L4 ADP hydrolysis; format: biochemical
[6] = ADPase activity of CD39-L4 from transfected COS-7 cells, stimulation by divalent cations; format: biochemical; conditions: 1 mM ADP
[7] = Assay for ATPase activity, [33P]Pi released from [γ33P]ATP; format: biochemical; conditions: transfected COS-7 cells, 10 μCi [γ33P]ATP, one hour, 37° C.
[8] = ADPase and ATPase activity of CD39L4 wild type and ACR mutants, inorganic phosphate released; format: biochemical

## C[C@H]1CCC/C=C/[C@@H]2C[C@H](O)C[C@H]2[C@H](O)/C=C/C(=O)O1 [brefeldin A]
COS-7 cells [1]
  effect on secretion of CD39-L4-6His: blocked secretion of CD39-L4-6His
COS-7 cells [2]
  effect on recombinant CD39-L2 in the media: decreased in a brefeldin A dose dependent manner

B1: CD39L4 dimer: dimeric form of secreted CD39L4 (protein, UniProt O75356 25-428, looked up)
Nucleoside diphosphate …: NQQTWFEGIFLSSMCPINVSASTLYGIMFDAGSTGTRIHVYTFVQKMPGQLPILEGEVFDSVKPGLSAFVDQPKQGAETVQGLLEVAKDSIPRSHWKKTPVVLKATAGLRLLPEHKAKALLFEVKEIFRKSPFLVPKGSVSIMDGSDEGILAWVTVNFLTGQLHGHRQETVGTLDLGGASTQITFLPQFEKTLEQTPRGYLTSFEMFNSTYKLYTHSYLGFGLKAARLATLGALETEGTDGHTFRSACLPRWLEAEWIFGGVKYQYGGNQEGEVGFEPCYAEVLRVVRGKLHQPEEVQRGSFYAFSYYYDRAVDTDMIDYEKGGILKVEDFERKAREVCDNLENFTSGSPFLCMDLSYITALLKDGFGFADSTVLQLTKKVNNIETGWALGATFHLLQSLGISH
modifications: dimer
[3]; monomer and dimer enriched sucrose density gradient fractions
  enzymatic (ADPase) activity of the dimer: does not possess any significant level of enzymatic activity

B2: deglycosylated CD39-L4: CD39-L4 from tunicamycin treated COS-7 cells (protein, UniProt O75356 25-428, looked up)
Nucleoside diphosphate …: NQQTWFEGIFLSSMCPINVSASTLYGIMFDAGSTGTRIHVYTFVQKMPGQLPILEGEVFDSVKPGLSAFVDQPKQGAETVQGLLEVAKDSIPRSHWKKTPVVLKATAGLRLLPEHKAKALLFEVKEIFRKSPFLVPKGSVSIMDGSDEGILAWVTVNFLTGQLHGHRQETVGTLDLGGASTQITFLPQFEKTLEQTPRGYLTSFEMFNSTYKLYTHSYLGFGLKAARLATLGALETEGTDGHTFRSACLPRWLEAEWIFGGVKYQYGGNQEGEVGFEPCYAEVLRVVRGKLHQPEEVQRGSFYAFSYYYDRAVDTDMIDYEKGGILKVEDFERKAREVCDNLENFTSGSPFLCMDLSYITALLKDGFGFADSTVLQLTKKVNNIETGWALGATFHLLQSLGISH
modifications: deglycosylated (tunicamycin)
notes: CD39-L4 from tunicamycin treated COS-7 cells
[3]; from tunicamycin (5 μg/ml) treated COS-7 cells
  ADPase activity of deglycosylated protein: comparable to an equal amount of the glycosylated protein

B3: CD39: 510-amino acid cell-surface ecto-apyrase (ATPDase) (protein, UniProt P49961 1-510, looked up)
Ectonucleoside triphosphate …: MEDTKESNVKTFCSKNILAILGFSSIIAVIALLAVGLTQNKALPENVKYGIVLDAGSSHTSLYIYKWPAEKENDTGVVHQVEECRVKGPGISKFVQKVNEIGIYLTDCMERAREVIPRSQHQETPVYLGATAGMRLLRMESEELADRVLDVVERSLSNYPFDFQGARIITGQEEGAYGWITINYLLGKFSQKTRWFSIVPYETNNQETFGALDLGGASTQVTFVPQNQTIESPDNALQFRLYGKDYNVYTHSFLCYGKDQALWQKLAKDIQVASNEILRDPCFHPGYKKVVNVSDLYKTPCTKRFEMTLPFQQFEIQGIGNYQQCHQSILELFNTSYCPYSQCAFNGIFLPPLQGDFGAFSAFYFVMKFLNLTSEKVSQEKVTEMMKKFCAQPWEEIKTSYAGVKEKYLSEYCFSGTYILSLLLQGYHFTADSWEHIHFIGKIQGSDAGWTLGYMLNLTNMIPAEQPLSTPLSHSTYVFLMVLFSLVLFTVAIIGLLIFHKPSYFWKDMV
[4]
  hydrolysis of ATP and ADP, in words: able to hydrolyze both ATP and ADP substrates efficiently

B4: CD39-L4: novel human CD39-like protein, 428 amino acids, amino acid sequence SEQ ID NO: 3; soluble apyrase specific for NDPs (protein)
chain: MATSWGTVFFMLVVSCVCSAVSHRNQQTWFEGIFLSSMCPINVSASTLYGIMFDAGSTGTRIHVYTFVQKMPGQLPILEGEVFDSVKPGLSAFVDQPKQGAETVQGLLEVAKDSIPRSHWKKTPVVLKATAGLRLLPEHKAKALLFEVKEIFRKSPFLVPKGSVSIMDGSDEGILAWVTVNFLTGQLHGHRQETVGTLDLGGASTQITFLPQFEKTLEQTPRGYLTSFEMFNSTYKLYTHSYLGFGLKAARLATLGALETEGTDGHTFRSACLPRWLEAEWIFGGVKYQYGGNQEGEVGFEPCYAEVLRVVRGKLHQPEEVQRGSFYAFSYYYDRAVDTDMIDYEKGGILKVEDFERKAREVCDNLENFTSGSPFLCMDLSYITALLKDGFGFADSTVLQLTKKVNNIETGWALGATFHLLQSLGISH
[5]
  cooperativity of ADPase activity, in words: does not appear to possess cooperativity
[5]; 15 mM CaCl2, ADP 0.75-18 mM, 37° C., 15 min, 60 ng protein per reaction, Michaelis-Menten fit
  Vmax of ADP hydrolysis: 1191 pmol/min
[5]; 15 mM CaCl2, ADP 0.75-18 mM, 37° C., 15 min, Michaelis-Menten fit
  Km: 12.7 mM
[5]; assuming 60 ng protein and 46000 g/mol
  turnover number, kcat, ADP as substrate: 15.2 s⁻¹
[6]; CD39-L4-6His from COS-7 medium on Nickel-NTA resin, 37° C., 30 min, no added cation
  fold increase in ADPase activity over cells transfected with vector alone: 2.3 fold
[6]; Ca2+ added
  fold increase in ADPase activity when Ca2+ added: 3.6 fold
[6]; Mg2+ added
  fold increase in ADPase activity when Mg2+ added: 6 fold
[7]
  increase in ATPase activity over cells transfected with vector alone: at least a four fold increase in activity
[8]; ADP as substrate
  hydrolysis of ADP, in words: hydrolyze ADP
[8]; ATP as substrate
  hydrolysis of ATP, in words: neither the CD39L4 nor the CD39L4 mutant, ACR III, catalyzed hydrolysis

B5: CD39-L66: isoform (splice variant) of CD39-L4, amino acid sequence SEQ ID NO: 25 (protein)
chain: MATSWGTVFFMLVVSCVCSAVSHRNQQTWFEGIFLSSMCPINVSASTLYGIMFDAGSTGTRIHVYTFVQKMPGQLPILEGEVFDSVKPGLSAFVDQPKQGAETVQGLLEVAKDSIPRSHWKKTPVVLKATAGLRLLPEHKAKALLFEVKEIFRKSPFLVPKGSVSIMDGSDEGILAWVTVNFLTGQLHGHRQETVGTLDLGGASTQITFLPQFEKTLEQTPRGYLTSFEMFNSTYKLYTHSYLGFGLKAARLATLGALETEGTDGHTFRSACLPRWLEAEWIFGGVKYQYGGNQEGEVGFEPCYAEVLRVVRGKLHQPEEVQRGSFYAFSYYYDRAVDTDMIDYEKGGILKVEDFERKAREVCDNLENFTSGSPFLCMDLSYITALLKDGFGFADSTVLQAAVLR
[7]
  increase in ATPase activity over cells transfected with vector alone: at least a four fold increase in activity
